Measurements taken from patent publication US20150368323A1 (MorphoSys, published 2015).
Ends that are not written are not given here.

Experiments:
[1] = target: T1, MprF protein of Staphylococcus aureus (Staphylococcus aureus, UniProt Q2G2M2 1-840); assay: whole cell ELISA on S. aureus; E. coli as negative control
T1 construct: Presented on whole S. aureus cells (Protein A deletion mutant, delta spa; SA113 delta spa in the functional assays); also called MprF on S. aureus
T1 sequence: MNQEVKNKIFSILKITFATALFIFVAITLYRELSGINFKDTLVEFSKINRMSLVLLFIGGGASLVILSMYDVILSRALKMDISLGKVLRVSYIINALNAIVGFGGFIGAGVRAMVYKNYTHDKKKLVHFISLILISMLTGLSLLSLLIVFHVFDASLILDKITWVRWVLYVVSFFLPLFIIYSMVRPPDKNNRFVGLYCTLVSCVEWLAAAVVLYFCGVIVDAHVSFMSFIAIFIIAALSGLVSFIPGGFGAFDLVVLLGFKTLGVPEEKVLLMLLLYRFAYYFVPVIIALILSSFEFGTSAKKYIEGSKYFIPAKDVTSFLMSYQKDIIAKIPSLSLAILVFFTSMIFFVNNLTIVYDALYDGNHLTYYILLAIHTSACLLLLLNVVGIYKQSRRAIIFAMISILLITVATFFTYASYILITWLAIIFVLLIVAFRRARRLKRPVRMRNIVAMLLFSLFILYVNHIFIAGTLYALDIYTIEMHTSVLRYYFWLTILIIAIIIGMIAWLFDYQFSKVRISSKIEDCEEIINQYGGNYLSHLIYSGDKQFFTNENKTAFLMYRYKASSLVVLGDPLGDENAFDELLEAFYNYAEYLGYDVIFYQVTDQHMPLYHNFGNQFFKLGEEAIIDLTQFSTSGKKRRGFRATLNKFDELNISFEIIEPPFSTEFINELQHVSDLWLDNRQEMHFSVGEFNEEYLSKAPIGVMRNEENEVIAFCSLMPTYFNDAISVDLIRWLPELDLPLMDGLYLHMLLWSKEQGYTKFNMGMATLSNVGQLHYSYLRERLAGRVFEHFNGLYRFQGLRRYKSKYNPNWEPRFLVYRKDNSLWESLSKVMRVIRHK

[2] = target: T2, Linear peptide, loop 1 of MprF (Staphylococcus aureus, added N-terminal Cysteine coupled to carrier protein BSA or transferrin; FIG. 2 legend calls it biotinylated); assay: ELISA, IgG on the peptide used in its selection (Table 2)
T2 construct: coated as BSA or transferrin conjugate in the ELISA; also called linear loop 1 peptide
T2 peptide: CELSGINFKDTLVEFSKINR

[3] = target: T1, MprF protein of Staphylococcus aureus; assay: whole cell ELISA on S. aureus delta spa versus delta spa delta mprF
[4] = target: T3, Linear peptide, loop 4 of MprF (Staphylococcus aureus, also: N-terminal Cys coupled to BSA or transferrin, called biotinylated legend); assay: ELISA, IgG on the peptide used in its selection (Table 2)
T3 construct: coated as BSA or transferrin conjugate in the ELISA; also called linear loop 4 peptide
T3 peptide: CGLGFKTLGVPEEKV

| Binder | binding result [1] | also measured |
| --- | --- | --- |
| M-C5.2 (antibody, V domains shown, Framework VH3-23 kappa 1; also called M-05.2) VH: EVQLLESGGGLVQPGGSLRLSCAASGFTFSSYAVHWVRQAPGKGLEWVSVISGRGGSTYYADSVKGRFTISRDNSKNTLYLQMNSLRAEDTAVYYCARDHGYFDYWGQGTLVTVSS VL: DIQMTQSPSSLSASVGDRVTITCRASQTISNHLGWYQQKPGKAPKLLIYTASNLQSGVPSRFSGSGSGTDFTLTISSLQPEDFATYYCQQYSHSSYTFGQGTKVEIKR | binds | – |
| M-C4.5 (antibody, V domains shown, Selected from the MorphoSys Ylanthia library; framework VH6-1) VH: QVQLQQSGPGLVKPSQTLSLTCAISGDSVSSNSAAWNWIRQSPSRGLEWLGRTYYRSKWYNDYAVSVKSRITINPDTSKNQFSLQLNSVTPEDTAVYYCARSAEPSYAYYHGFDYWGQGTLVTVSS VL: DIQLTQSPSFLSASVGDRVTITCRASQGISSYLAWYQQKPGKAPKLLIYAASTLQSGVPSRFSGSGSGTEFTLTISSLQPEDFATYYCQQRIIFPQTFGQGTKVEIKR | binds | – |
| M-C1 (antibody, V domains shown, Framework VH3-23 kappa 3) VH: EVQLLESGGGLVQPGGSLRLSCAASGFTFSSYAMNWVRQAPGKGLEWVSVISSDGSDTYYADSVKGRFTISRDNSKNTLYLQMNSLRAEDTAVYYCARESYYIGWDYWGQGTLVTVSS VL: DIVLTQSPATLSLSPGERATLSCRASQRVSSSFLAWYQQKPGQAPRLLIYLASNRATGIPARFSGSGSGTDFTLTISSLEPEDFAVYYCLQYGHYPPTFGQGTKVEIKR | binds | – |
| M-C4.3 (antibody, V domains shown, Framework VH1A kappa 1) VH: QVQLVQSGAEVKKPGSSVKVSCKASGGTFSDHTISWVRQAPGQGLEWMGGIIPIVGIANYAQKFQGRVTITADESTSTAYMELSSLRSEDTAVYYCAREYYVPDSGWFDYWGQGTLVTVSS VL: DIQMTQSPSSLSASVGDRVTITCRASQDISDYLVWYQQKPGKAPKLLIYDASNLQSGVPSRFSGSGSGTDFTLTISSLQPEDFATYYCQQYYHYRTFGQGTKVEIKR | binds | – |
| M-L1 (antibody, V domains shown, Framework VH1A kappa 3) VH: QVQLVQSGAEVKKPGSSVKVSCKASGGTFNSYAIHWVRQAPGQGLEWMGGIIPIFGIANYAQKFQGRVTITADESTSTAYMELSSLRSEDTAVYYCARDQYTYDYYRAFDYWGQGTLVTVSS VL: DIVLTQSPATLSLSPGERATLSCRASQSVRDNLAWYQQKPGQAPRLLIYGASNRATGIPARFSGSGSGTDFTLTISSLEPEDFAVYYCQQYDHSPRTFGQGTKVEIKR | – | binding result [2]: binds; binding result [3]: binds |
| M-C5.1 (antibody, V domains shown, Framework VH1A kappa 1; also called M-05.1) VH: QVQLVQSGAEVKKPGSSVKVSCKASGGTFSSYAISWVRQAPGQGLEWMGGIVPIFGTANYAQKFQGRVTITADESTSTAYMELSSLRSEDTAVYYCARVRYGYWDVWGQGTLVTVSS VL: DIQMTQSPSSLSASVGDRVTITCRASQDIANWLNWYQQKPGKAPKLLIYAASSLQSGVPSRFSGSGSGTDFTLTISSLQPEDFATYYCQQYISLPITFGQGTKVEIKR | – | binding result [3]: binds |
| M-C6.2 (antibody, V domains shown, Framework VH1A kappa 1) VH: QVQLVQSGAEVKKPGSSVKVSCKASGGTFSSYAISWVRQAPGQGLEWMGGIIPILGIANYAQKFQGRVTITADESTSTAYMELSSLRSEDTAVYYCARSLPYRSDLYGFSRWSYHRVGMDVWGQGTLVTVSS VL: DIQMTQSPSSLSASVGDRVTITCRASQDISNTLNWYQQKPGKAPKLLIYAASTLQSGVPSRFSGSGSGTDFTLTISSLQPEDFATYYCQQVGSFPYTFGQGTKVEIKR | binds | – |
| M-C6.1 (antibody, V domains shown, Framework VH1A kappa 1) VH: QVQLVQSGAEVKKPGSSVKVSCKASGGTFSIYAISWVRQAPGQGLEWMGGIIPEFGTANYAQKFQGRVTITADESTSTAYMELSSLRSEDTAVYYCARSQIYTLSYPKWFDFWGQGTLVTVSS VL: DIQMTQSPSSLSASVGDRVTITCRASQDISNYLNWYQQKPGKAPKLLIYDASNLQSGVPSRFSGSGSGTDFTLTISSLQPEDFATYYCLQYLQSPKTFGQGTKVEIKR | binds | – |
| M-C4.2 (antibody, V domains shown, Framework VH3-23 kappa 1) VH: EVQLLESGGGLVQPGGSLRLSCAASGFTFSSYAMHWVRQAPGKGLEWVSVISSVGSSTYYADSVKGRFTISRDNSKNTLYLQMNSLRAEDTAVYYCARGGLDVWGQGTLVTVSS VL: DIQMTQSPSSLSASVGDRVTITCRASQDISKYLNWYQQKPGKAPKLLIYAASRLQSGVPSRFSGSGSGTDFTLTISSLQPEDFATYYCQQGDSTPFTFGQGTKVEIKR | binds | – |
| M-L4 (antibody, V domains shown, Framework VH3-23 kappa 1) VH: EVQLLESGGGLVQPGGSLRLSCAASGFTFRSYAMSWVRQAPGKGLEWVSIISYDGSSTYYADSVKGRFTISRDNSKNTLYLQMNSLRAEDTAVYYCARTATSGSRGYFDYWGQGTLVTVSS VL: DIQMTQSPSSLSASVGDRVTITCRASQDISSWLNWYQQKPGKAPKLLIFGASTLQSGVPSRFSGSGSGTDFTLTISSLQPEDFATYYCQQHYTSPVTFGQGTKVEIKR | binds | binding result [4]: binds |
